Measured values taken from US9724381B2 (THE ADMINISTRATORS OF THE TULANE EDUCATIONAL FUND, priority 2009, dated 2017).
Where no end group is shown, it is not given here. [ ]: non-standard residue; d: D form. Orn = NCCC[C@H](N)C(=O)O; Dab = NCC[C@H](N)C(=O)O; Aib = CC(C)(N)C(=O)O; Inp = O=C(O)C1CCNCC1; GABA = NCCCC(=O)O; βAla = NCCC(=O)O

Target: Ghrelin/GHRP/GHS Receptor (Rattus norvegicus, UniProt O08725)
Experiment: In vivo GH release in rat (serum GH by RIA after i.v. peptide)
Settings: for Unstimulated Basal GH Release from rat: Table 3; for Unstimulated Basal GH release from rats: Table 5; for Stimulated (S) GH release from rats / Unstimulated GH release from rats: Table 4, non-pentobarbital rats, peptide 30 μg i.v.; for Stimulated (S) GH release from rats: P + S, stimulator 10 μg; for Unstimulated GH release from rats: −S
Protocol: For the in vivo assay of GH Release in rat, immature female Sprague Dawley rats were obtained from Charles River from Wilmington, Mass. After arrival they were housed at 25° C. with a 14:10 h light:dark cycle. Water and Purina rat chow were available at libitum. Pups were weaned at 21 days of age.
Immature twenty six day old female Sprague Dawley rats, 3-6 rats per treatment dose, were pretreated with pentobarbital 20 minutes before iv injection of vehicle/peptide or peptide plus stimulator. Injection was made as a 0.1 ml solution. For the non-pentobarbital treated rat assay, peptides were administered iv into the tail vein of conscious rats. All animals were sacrificed by guillotine after iv peptide or vehicle. Trunk blood was collected at +10-15 minutes […], allowed to clot, centrifuged and serum stored until assayed for GH levels by RIA. The GH RIA reagents were distributed by the NIH. Control data was collected from rats treated with only the corresponding vehicle in the absence of peptide or stimulator. Control stimulated data was collected from rats treated with stimulator alone in the absence of any peptide.

[1] = peptide antagonist alone 10 μg i.v.
[2] = peptide antagonist alone 1 μg i.v.
[3] = peptide antagonist alone 30 μg i.v.

Chain of Ghrelin/GHRP/GHS Receptor (O08725 whole entry): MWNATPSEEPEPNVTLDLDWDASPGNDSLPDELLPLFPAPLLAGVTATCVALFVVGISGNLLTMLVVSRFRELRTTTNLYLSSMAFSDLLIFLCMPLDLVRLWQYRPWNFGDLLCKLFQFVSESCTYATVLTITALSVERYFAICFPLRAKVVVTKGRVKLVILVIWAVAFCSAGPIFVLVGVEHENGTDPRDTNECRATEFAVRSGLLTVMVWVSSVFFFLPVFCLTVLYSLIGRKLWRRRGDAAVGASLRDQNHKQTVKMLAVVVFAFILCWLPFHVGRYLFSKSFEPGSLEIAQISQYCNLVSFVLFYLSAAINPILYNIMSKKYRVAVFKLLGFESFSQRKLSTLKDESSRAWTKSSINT

| Substance | Unstimulated Basal GH release from rats [1] [ng/mL] | Unstimulated Basal GH release from rats [2] [ng/mL] | Unstimulated Basal GH release from rats [3] [ng/mL] | further results |
| --- | --- | --- | --- | --- |
| His-DTrp-Phe-Trp-DPhe-Lys-NH2 (H[dW]FW[dF]K-NH2; N-terminus assumed; SMILES NCCCC[C@H](NC(=O)[C@@H](Cc1ccccc1)NC(=O)[C@H](Cc1c[nH]c2ccccc12)NC(=O)[C@H](Cc1ccccc1)NC(=O)[C@@H](Cc1c[nH]c2ccccc12)NC(=O)[C@@H](N)Cc1c[nH]cn1)C(N)=O) |  |  |  | Unstimulated Basal GH Release from rat (peptide alone 1 μg i.v.): 67 ± 14 ng/mL; Unstimulated Basal GH Release from rat (peptide alone 3 μg i.v.): 141 ± 53 ng/mL; Unstimulated Basal GH Release from rat (peptide alone 10 μg i.v.): 197 ± 70 ng/mL; Unstimulated Basal GH Release from rat (peptide alone 30 μg i.v.): 509 ± 48 ng/mL |
| His-Trp-DAla-DTrp-Phe-LysNH2 (HW[dA][dW]FK-NH2) |  |  |  | Unstimulated Basal GH Release from rat (peptide alone 1 μg i.v.): 204 ± 44 ng/mL; Unstimulated Basal GH Release from rat (peptide alone 3 μg i.v.): 127 ± 44 ng/mL; Unstimulated Basal GH Release from rat (peptide alone 10 μg i.v.): 83 ± 5 ng/mL |
| Tyr-DAla-Phe-Aib-NH2 (Y[dA]F[Aib]-NH2; N-terminus assumed; SMILES C[C@@H](NC(=O)[C@@H](N)Cc1ccc(O)cc1)C(=O)N[C@@H](Cc1ccccc1)C(=O)NC(C)(C)C(N)=O) [Tyr-DAla-Phe-Alb-NH2] |  |  |  | Stimulated (S) GH release from rats: 23 ± 5 ng/mL; Unstimulated GH release from rats: 18 ± 1 ng/mL |
| Tyr-DAla-Sar-NMePhe-NH2 |  |  |  | Stimulated (S) GH release from rats: 24 ± 6 ng/mL; Unstimulated GH release from rats: 18 ± 4 ng/mL |
| inip-Trp-Trp-Phe-NH2 ([Inp]WWF-NH2; N-terminus assumed; SMILES NC(=O)[C@H](Cc1ccccc1)NC(=O)[C@H](Cc1c[nH]c2ccccc12)NC(=O)[C@H](Cc1c[nH]c2ccccc12)NC(=O)C1CCNCC1) | 69 ± 3 |  | 81 ± 10 |  |
| αγAbu-DTrp-DTrp-Ser-NH2 ([Dab][dW][dW]S-NH2; N-terminus assumed; SMILES NCC[C@H](N)C(=O)N[C@H](Cc1c[nH]c2ccccc12)C(=O)N[C@H](Cc1c[nH]c2ccccc12)C(=O)N[C@@H](CO)C(N)=O) | 62 ± 15 | 80 ± 35 | 67 ± 8 |  |
| βAla-Trp-DAla-DTrp-Phe-NH2 ([βAla]W[dA][dW]F-NH2; N-terminus assumed; SMILES C[C@@H](NC(=O)[C@H](Cc1c[nH]c2ccccc12)NC(=O)CCN)C(=O)N[C@H](Cc1c[nH]c2ccccc12)C(=O)N[C@@H](Cc1ccccc1)C(N)=O) |  |  |  | Unstimulated Basal GH Release from rat (peptide alone 30 μg i.v.): 341 ± 46 ng/mL; Unstimulated Basal GH Release from rat (peptide alone 100 μg i.v.): 636 ± 171 ng/mL |

Further lines, with some results ahead:

| Unstimulated Basal GH release from rats [1] [ng/mL] | Unstimulated Basal GH release from rats [2] [ng/mL] | Unstimulated Basal GH release from rats [3] [ng/mL] | Substance | further results |
| --- | --- | --- | --- | --- |
| 121 ± 24 |  |  | Lys-DHis-DTrp-Phe-NH2 (K[dH][dW]F-NH2; N-terminus assumed; SMILES NCCCC[C@H](N)C(=O)N[C@H](Cc1c[nH]cn1)C(=O)N[C@H](Cc1c[nH]c2ccccc12)C(=O)N[C@@H](Cc1ccccc1)C(N)=O) |  |
| 90 ± 5 | 82 ± 28 | 113 ± 32 | [GABA][dW][dW][Orn]-NH2 |  |
| 88 ± 18 | 85 ± 25 | 50 ± 6 | αAbu-DTrp-DTrp-Orn-NH2 |  |
| 62 ± 15 | 57 ± 7 |  | αγAbu-DTrp-DTrp-Lys-NH2 ([Dab][dW][dW]K-NH2; N-terminus assumed; SMILES NCCCC[C@H](NC(=O)[C@@H](Cc1c[nH]c2ccccc12)NC(=O)[C@@H](Cc1c[nH]c2ccccc12)NC(=O)[C@@H](N)CCN)C(N)=O) | Unstimulated Basal GH release from rats (peptide antagonist alone 3 μg i.v.): 84 ± 18 ng/mL |
| 126 ± 27 | 118 ± 16 | 79 ± 31 | αγAbu-DTrp-DTrp-Orn-NH2 |  |
